One assay addresses T1, insulin (Sigma).
T1 construct: Antigen of the polyreactivity ELISA
Nature of the assay: polyreactive ELISA, insulin coated, 100 nM antibody. Here is the method:
Insulin ([…]; Sigma) and dsDNA ([…]; Sigma) were coated onto 96-well high-binding ELISA microplates (Corning) at 50 μL per well overnight at 4° C. Plates were blocked with PBS with 0.5% BSA (blocking buffer) at room temperature (RT) for 1 h, followed by three washes with PBST (PBS with 0.1% Tween-20). 50 μL of 100 nM antibody in blocking buffer was added to each well and incubated at RT for 1 h, followed by six washes with 100 μL of PBS. 50 μL of diluted anti-human IgG-horseradish peroxidase (HRP) conjugate (Jackson ImmunoResearch) was added to the wells and incubated for 1 h followed by another six washes. Finally, 50 μL of 3, 3′, 5, 5′-Tetramethylbenzidine (TMB) substrate (Fisher Scientific) was added to each well to develop the detection signal. The reactions were stopped by adding 50 μL of 2 M sulfuric acid to each well. The absorbance was measured at 450 nm using a multimode microplate reader. Ustekinumab as the control antibody with low polyreactivity and bococizumab as a highly polyreactive antibody control were also included in the polyreactive ELISA assessment.
The first assessment tested for low non-specific binding to dsDNA and insulin by ELISA. […] Thus, by this standard, none of the tested antibodies were polyreactive.
A general note: An ELISA detects its analyte on a solid surface through an enzyme-linked reagent.

Assay [1] deals with T2, human CD8 on cells (CD8-overexpressing HEK293T cells, SupT1, HPB-ALL, human T cells, transfected HEK293 of … (human, UniProt P01732 22-235)).
T2 construct: whole, on cells; also called cell surface CD8
Nature of the assay: flow cytometry on CD8-overexpressing HEK293T cells, non-linear fit of normalized gMFI. Here is the method: To obtain the results shown in FIG. 3A, that determined EC₅₀ values for antigen-specific binding, CD8-overexpressing HEK293T cells were dissociated in Versine solution (PBS buffer at pH 7.4 supplemented with 0.5 mM EDTA), and 2×10⁵ total cells were transferred to a V-bottom 96 well culture plate (Corning). Cells were washed twice with Cell Staining buffer (#420201, Biolegend). Each anti-CD8α antibody with human IgG1 isotype and Fc-silencing mutations L234A, L235A and P329A was diluted in four-fold antibody titration series from 100 μg/mL to 6.1 ng/ml into Cell Staining buffer. eFluor 780 Fixable Viability dye (eBioscience) was also included during antibody solutions at a 1:4000 dilution. Cells were stained with each diluted antibody solution for 30 minutes on ice. Cells were then washed three times with Cell Staining buffer and primary antibody binding was detected by staining with anti-human Fc BV421 conjugate antibody (#410704, Biolegend) at 1:100 dilution for 30 minutes on ice. After staining with the secondary detection antibody, cells were washed three times with Cell Staining buffer, fixed in FluoroFix buffer (Biolegend) and kept at 4° C. in the dark until analysis. Flow cytometry analysis on each sample was performed on an Agilent NovoCyte flow cytometer. Flow cytometry data was analyzed by Flowjo 10 (Becton, Dickinson & Company) to measure the geometric median fluorescence intensity (gMFI) of the on-cell binding from each antibody. The gMFI values were normalized with the gMFI measured in the sample stained with only the secondary detection antibody and plotted against the concentration of the added antibodies. The binding curves were constructed using the Graphpad Prism software, and EC₅₀ values were determined by non-linear curve fitting.
(In general: Flow cytometry measures light scatter and fluorescence of single cells or particles in a stream.)

The target of assay [2] is T3, human CD8αα homodimer, recombinant protein (Acro Biosystems) (human, UniProt P01732 22-182).
T3 construct: also called CD8αα antigen; biotinylated CD8α recombinant protein (CDA-H82E3)
Nature of the assay: BLI steady state, whole hIgG1-LALAPA antibody on CD8α-His (Ni-NTA sensor), 30 °C. Here is the method:
(§1) To assess affinity of whole antibodies, steady state analysis was used as the bivalent nature of both whole antibody and CD8α complicates kinetic analysis. 50 nM CD8α-His (that is, CD8α with a C-terminal oligohistidine tag; Acro) was immobilized on Ni-NTA sensor probes. Binding was analyzed with a three-fold antibody dilutions series: 60 nM, 20 nM, 6.67 nM, 2.22 nM, 0.74 nM, and 0.25 nM. The antigen-loaded sensors were incubated in the diluted solutions to capture the whole IgG antibody for 300 s to record the association phase. Sensors were incubated in the kinetic buffer for 900 s to record the dissociation phase. The spin speed was 1000 rpm for all steps except the antigen loading step which was 400 rpm to control density of the antigen. The temperature of the performed assays was at 30° C. during the association and dissociation phases. The sensor data were baseline subtracted and further analyzed in GatorOne software (version 2.10) to determine the equilibrium dissociation constants (KD) of the antibodies by fitting the signals of the steady states to the 1:1 binding model.

The target in assay [3] is T3, human CD8αα homodimer, recombinant …. Put plainly: BLI kinetic assay, engineered F(ab') fragment. Here is the method: (§2) The global fitting was performed with a 1:1 fitting model using GatorOne software as described below.
Biolayer interferometry kinetic assays were performed using a GatorBio Gator Plus BLI system. Kinetic buffer containing PBS plus 0.1% Tween 20 and 0.2% BSA was used for calculating the baseline. To measure the binding kinetics of anti-CD8α antibody fragment (Fab), streptavidin-immobilized SA-XT sensors (#160029, Gator Bio) were prehydrated in the kinetic buffer and loaded with […] biotinylated CD8α recombinant protein (CDA-H82E3, Acro Biosystems) at a spin speed of 400 rpm to a threshold response of 10 nm. The sensors were then incubated in the kinetic buffer for 300 s to acquire a baseline measurement prior to each association. […] The antigen-loaded sensors were incubated in the diluted solutions to capture Fab fragments for 300 s to record the association phase. Sensors were finally incubated in the kinetic buffer for 900 s to record the dissociation phase. The spin speed for all steps except the antigen loading step was 1000 rpm. The temperature of the performed assays was either 30° C. or 37° C. during the association and dissociation phases. Sensor data were baseline subtracted, and global curve fitting of the kinetic data from six different analyte concentrations at a 1:1 monovalent binding model was performed using GatorOne software (version v2.10) to determine kinetic rate constants (kₒₙ and koff) and equilibrium dissociation constants (KD) of the analyzed antibodies.
For orientation: In BLI a coated tip is dipped into the sample, and binding shifts an interference pattern.

The target is the same in assay [4]. Nature of the assay: BLI kinetic sensorgram, 1:1 global fit. Here is the method: as §2
To measure the binding kinetics of the biotin-conjugated Fab molecule, streptavidin-immobilized SA-XT sensors (#160029, Gator Bio) were prehydrated in the kinetic buffer and loaded with […] biotinylated Fab sample CBD1033.37 or CBD1033.24 to a threshold response of 10 nm. […] The binder-loaded sensors were incubated in the diluted solutions to capture the CD8α protein for 1200 s to record the association phase. Sensors were finally incubated in the kinetic buffer for another 1200 s to record the dissociation phase. The spin speed for all steps was 1000 rpm. The temperature of the performed assays were at 37° C. during the association and dissociation. The sensor data were baseline subtracted, and global curve fitting of the kinetic data from six different analyte concentrations at a 1:1 monovalent binding model was performed using the GatorOne software (version v2.10) to determine the kinetic rate constants (kₒₙ and koff) and equilibrium dissociation constants (KD) of the analyzed binder.

Assay [5] shares this target. Nature of the assay: BLI, whole antibody.
The target is the same in assay [6]. Put plainly: BLI, whole antibody, steady state dissociation constant (column head x10^-9M). Here is the method: as §1

T1 sequence (P01308 25-54, chain 1 of 2): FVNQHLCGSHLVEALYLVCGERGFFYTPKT
T1 sequence (P01308 90-110, chain 2 of 2): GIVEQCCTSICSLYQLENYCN
T3 sequence (P01732 22-182 limits assumed): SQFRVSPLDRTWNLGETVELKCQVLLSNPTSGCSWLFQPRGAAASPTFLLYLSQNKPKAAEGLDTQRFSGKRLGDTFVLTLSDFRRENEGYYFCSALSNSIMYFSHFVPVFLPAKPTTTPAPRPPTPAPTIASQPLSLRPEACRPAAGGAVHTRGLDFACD
T2 sequence (P01732 22-235): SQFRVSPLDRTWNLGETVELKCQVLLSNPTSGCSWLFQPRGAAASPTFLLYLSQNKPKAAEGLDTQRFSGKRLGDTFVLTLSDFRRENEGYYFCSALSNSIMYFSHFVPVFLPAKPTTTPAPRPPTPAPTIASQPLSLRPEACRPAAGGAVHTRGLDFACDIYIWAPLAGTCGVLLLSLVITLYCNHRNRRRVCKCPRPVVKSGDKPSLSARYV

B1: CBD1034 whole antibody, Fc-silenced human IgG1 (LALAPA) (antibody, V domains shown)
VH: QVQLVQSGAEVKKPGASVKVSCKASRYTFTDYNLHWVRQAPGQGLEWMGFIYPYNGGTGYAQKFQGRVTMTVDTSTSTAYMELSSLRSEDTAVYYCARDHRYNEGVSFDYWGQGTTVTVSS
VL: DIQLTQSPSSLSASVGDRATITCRASESVDGFGNSFMNWYQQKPGKAPKLLIYLASNLESGVPSRFSGSGSRTDFTLTISSVQPEDFATYYCQQNNEDPYTFGQGTKLEIKR
Take B1: the “polyreactivity ELISA score” value with insulin (Sigma) was found to be 1. Also, in assay [1], a half-maximal response (EC50) required 2.71 nM. For the same molecule, in assay [2], the Kd (as a rule, the equilibrium constant for the complex coming apart) turned out to be 4.63 nM.

B2: CBD1033.37 disulfide-engineered F(ab') analog (IgG1-derived) (Fab, V domains shown)
VH: QVQLVQSGAEVKKPGASVKVSCKASRYTFTDYNLHWVRQAPGQGLEWMGFIYPYNGGTGYAQKFQGRVTMTVDTSTSTAYMELSSLRSEDTAVYYCARDHRYNEGVSFDYWGQGTTVTVSS
VL: DIQLTQSPSSLSASVGDRATITCRASESVDGFGNSFMNWYQQKPGKAPKLLIYLASNLESGVPSRFSGSGSGTDFTLTISSVQPEDFATYYCQQNNEDPYTFGQGTKLEIKR
notes: Engineered CH1-F174C / CK-S162C interchain disulfide; native disulfide removed; also called .37 design
Turning to B2, in assay [3], the Kd was 4.01 nM; the koff (commonly the rate constant with which the complex falls apart) came to 6.28e-05 s⁻¹; the kon (as a rule, the second-order rate constant of association) stood at 15600 M⁻¹ s⁻¹. Moreover, in assay [4], the Kd stood at 4.01 nM, the koff worked out at 6.28e-05 s⁻¹ and the kon was 15600 M⁻¹ s⁻¹.

B3: CBD1040 whole antibody, Fc-silenced human IgG1 (LALAPA) (antibody, V domains shown)
VH: QVQLVQSGAEVKKPGASVKISCKASRYTFTDYNLHWVRQAPGQGLEWIGFIYPYNGGTGYAQKFQGRATLTVDYSTSTAYMELSSLRSEDTAVYYCARDHRYNEGVSFDYWGQGTTLTVSS
VL: DIQLTQSPSSLSASVGDRATITCRASESVDGFGNSFMNWYQQKPGKAPKLLIYLASNLESGVPSRFSGSGSRTDFTLTISSVQPEDFATYYCQQNNEDPYTFGQGTKLEIKR
With B3, the “polyreactivity ELISA score” value with insulin (Sigma) was 1. Further, the concentration giving a half-maximal response (EC50) (in general, the concentration needed to bring the measured effect to its halfway point) in assay [1] is 2.54 nM. For the same molecule, the Kd in assay [2] is 4.06 nM.

B4: CBD1039 whole antibody, Fc-silenced human IgG1 (LALAPA) (antibody, V domains shown)
VH: QVQLVQSGAEVKKPGASVKISCKASRYTFTDYNLHWVRQAPGQGLEWIGFIYPYNGGTGYAQKFQGRATLTVDYSTSTAYMELSSLRSEDTAVYYCARDHRYNEGVSFDYWGQGTTLTVSS
VL: DIQLTQSPSSLSASVGDRATITCRASESVDGFGNSFMNWYQQKPGKAPKLLIYLASNLESGVPSRFSGSGSGTDFTLTISSVQPEDFATYYCQQNNEDPYTFGQGTKLEIKR
For B4, in the assay with insulin (Sigma), the “polyreactivity ELISA score” value was 1. In addition, in assay [1], the EC50 stood at 4.39 nM. Further, the Kd in assay [2] turned out to be 1.76 nM.

B5: CBD1380 whole antibody (VH N55S of CBD1033), Fc-silenced human IgG1 (antibody, V domains shown)
VH: QVQLVQSGAEVKKPGASVKVSCKASRYTFTDYNLHWVRQAPGQGLEWMGFIYPYSGGTGYAQKFQGRVTMTVDTSTSTAYMELSSLRSEDTAVYYCARDHRYNEGVSFDYWGQGTTVTVSS
VL: DIQLTQSPSSLSASVGDRATITCRASESVDGFGNSFMNWYQQKPGKAPKLLIYLASNLESGVPSRFSGSGSGTDFTLTISSVQPEDFATYYCQQNNEDPYTFGQGTKLEIKR
In the case of B5, in assay [5], the koff is 0.00192 s⁻¹ and the kon was 1.86e+06 M⁻¹ s⁻¹. Moreover, the Kd in assay [6] was found to be 0.76 nM.

B6: CBD1035 whole antibody, Fc-silenced human IgG1 (LALAPA) (antibody, V domains shown)
VH: QVQLVQSGAEVKKPGASVKISCKASRYTFTDYNLHWVRQAPGQGLEWIGFIYPYNGGTGYAQKFQGRATLTVDTSTSTAYMELSSLRSEDTAVYYCARDHRYNEGVSFDYWGQGTTLTVSS
VL: DIQLTQSPSSLSASVGDRATITCRASESVDGFGNSFMNWYQQKPGKAPKLLIYLASNLESGVPSRFSGSGSGTDFTLTISSVQPEDFATYYCQQNNEDPYTFGQGTKLEIKR
In the case of B6, the “polyreactivity ELISA score” value in the assay with insulin (Sigma) is 1. This molecule returned an EC50 in assay [1] of 1.75 nM. Besides, the Kd in assay [2] was determined as 2.66 nM.

B7: CBD1382 whole antibody (VH N55A of CBD1033), Fc-silenced human IgG1 (antibody, V domains shown)
VH: QVQLVQSGAEVKKPGASVKVSCKASRYTFTDYNLHWVRQAPGQGLEWMGFIYPYAGGTGYAQKFQGRVTMTVDTSTSTAYMELSSLRSEDTAVYYCARDHRYNEGVSFDYWGQGTTVTVSS
VL: DIQLTQSPSSLSASVGDRATITCRASESVDGFGNSFMNWYQQKPGKAPKLLIYLASNLESGVPSRFSGSGSGTDFTLTISSVQPEDFATYYCQQNNEDPYTFGQGTKLEIKR
With B7, in assay [5], the koff turned out to be 0.00195 s⁻¹ and the kon came out at 1.63e+06 M⁻¹ s⁻¹. Also, the Kd in assay [6] was determined as 0.88 nM.

B8: CBD1381 whole antibody (VH N55Q of CBD1033), Fc-silenced human IgG1 (antibody, V domains shown)
VH: QVQLVQSGAEVKKPGASVKVSCKASRYTFTDYNLHWVRQAPGQGLEWMGFIYPYQGGTGYAQKFQGRVTMTVDTSTSTAYMELSSLRSEDTAVYYCARDHRYNEGVSFDYWGQGTTVTVSS
VL: DIQLTQSPSSLSASVGDRATITCRASESVDGFGNSFMNWYQQKPGKAPKLLIYLASNLESGVPSRFSGSGSGTDFTLTISSVQPEDFATYYCQQNNEDPYTFGQGTKLEIKR
Turning to B8, in assay [5], the koff was 0.000795 s⁻¹ and the kon came out at 1.91e+06 M⁻¹ s⁻¹. The Kd in assay [6] was determined as 0.5 nM.

These data come from patent US20250195685A1 (CAPSTAN THERAPEUTICS, published 2025).
